These results are taken from patent US20220251204A1 (AstraZeneca / MedImmune, published 2022).

In one experiment the target is T1, cynomolgus PD-1 (cynomolgus, UniProt B0LAJ3 25-170).
T1 construct: also called cyno PD1
As to the kind of experiment: SPR, BIAcore T200; antibody captured on mouse anti-huIgG-Fab, antigen injected.

Experiment [1] deals with T2, human PD-1 antigen (soluble) (human, UniProt Q15116 25-170).
T2 construct: also called hu PD1; Biotinylated human PD-1
Described as above.

Experiment [2] deals with T3, CTLA-4-Fc (human recombinant protein, R&D Systems) (human, UniProt P16410 37-162).
T3 construct: also called CTLA-4-Fc antigen; not shown: Fc part of the bought fusion
T3 sequence: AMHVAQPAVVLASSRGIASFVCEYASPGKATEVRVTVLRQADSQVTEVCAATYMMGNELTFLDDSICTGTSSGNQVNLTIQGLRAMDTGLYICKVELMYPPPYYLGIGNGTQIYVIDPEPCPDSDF
As to the kind of experiment: Octet, same tip after PDL1-His and bispecific, then CTLA-4-Fc (100 nM per paragraph 296): concurrent binding. A general note: Biolayer interferometry detects binding as a change in optical thickness at a sensor tip.

The target of a further experiment is T4, cynomolgus TIM3 (cynomolgus, UniProt A0A2K5U3G7 22-195).
T4 construct: also called Cyno TIM3
T4 sequence: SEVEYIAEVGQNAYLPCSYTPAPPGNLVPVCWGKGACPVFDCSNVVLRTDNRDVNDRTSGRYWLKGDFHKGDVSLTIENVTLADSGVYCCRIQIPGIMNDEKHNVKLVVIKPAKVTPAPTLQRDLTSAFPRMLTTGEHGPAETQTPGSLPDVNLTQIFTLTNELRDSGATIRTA
As to the kind of experiment: SPR, BIAcore T200; antibody captured on mouse anti-huIgG-Fab, antigen injected. Background: Surface plasmon resonance follows binding to a sensor surface in real time, without labels.

A further experiment concerns the target T5, human TIM3 (soluble) (human, UniProt Q8TDQ0 22-202).
T5 construct: also called Biotinylated human TIM3
T5 sequence: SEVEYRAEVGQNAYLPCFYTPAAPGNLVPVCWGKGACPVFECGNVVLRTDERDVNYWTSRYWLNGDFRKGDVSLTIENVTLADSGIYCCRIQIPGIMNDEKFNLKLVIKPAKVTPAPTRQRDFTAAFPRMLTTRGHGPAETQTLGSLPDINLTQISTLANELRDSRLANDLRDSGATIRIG
The description is as above.

T2 sequence (Q15116 25-170 limits assumed): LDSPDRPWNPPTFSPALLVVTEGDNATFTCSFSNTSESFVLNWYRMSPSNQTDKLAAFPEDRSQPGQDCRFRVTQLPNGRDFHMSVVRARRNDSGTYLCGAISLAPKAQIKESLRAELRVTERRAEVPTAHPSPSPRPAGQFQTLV
T1 sequence (B0LAJ3 entry or part of it limits assumed): as the sequence (Q15116 25-170 limits assumed) above, with D2E, P10A, V19L, T35A, Q75R, T144A counted along it

B1: LO115 IgG1-TM (antibody, V domains shown)
VH: EVQLVESGGGLVQPGGSLRLSCAASGFTFSDYGMHWVRQAPGKGLEWVAYISSGSYTIYSADSVKGRFTISRDNAKNSLYLQMNSLRAEDTAVYYCARRAPNSFYEYYFDYWGQGTTVTVSS
VL: QIVLTQSPATLSLSPGERATLSCSASSKHTNLYWSRHMYWYQQKPGQAPRLLIYLTSNRATGIPARFSGSGSGTDFTLTISSLEPEDFAVYYCQQWSSNPFTFGQGTKLEIK
notes: also called parental LO115 IgG1
The Kd is the free concentration of one partner at which half of the binding sites on the other are occupied at equilibrium, for simple one-to-one binding. A lower Kd goes with a tighter complex. One may read the koff as the first-order rate constant of dissociation. As usually defined, the kon is the rate constant with which the complex forms. Take B1: in the experiment with cynomolgus PD-1, the affinity, expressed as Kd, was 810 pM; the koff worked out at 0.000238 s⁻¹; the kon came to 346000 M⁻¹ s⁻¹. Besides, in experiment [1], the Kd is 790 pM, the off-rate (koff) stood at 0.000237 s⁻¹ and the kon is 302000 M⁻¹ s⁻¹.

B2: Bis2 PD-L1/CTLA-4 (bispecific antibody, human IgG4 S228P, kappa)
heavy: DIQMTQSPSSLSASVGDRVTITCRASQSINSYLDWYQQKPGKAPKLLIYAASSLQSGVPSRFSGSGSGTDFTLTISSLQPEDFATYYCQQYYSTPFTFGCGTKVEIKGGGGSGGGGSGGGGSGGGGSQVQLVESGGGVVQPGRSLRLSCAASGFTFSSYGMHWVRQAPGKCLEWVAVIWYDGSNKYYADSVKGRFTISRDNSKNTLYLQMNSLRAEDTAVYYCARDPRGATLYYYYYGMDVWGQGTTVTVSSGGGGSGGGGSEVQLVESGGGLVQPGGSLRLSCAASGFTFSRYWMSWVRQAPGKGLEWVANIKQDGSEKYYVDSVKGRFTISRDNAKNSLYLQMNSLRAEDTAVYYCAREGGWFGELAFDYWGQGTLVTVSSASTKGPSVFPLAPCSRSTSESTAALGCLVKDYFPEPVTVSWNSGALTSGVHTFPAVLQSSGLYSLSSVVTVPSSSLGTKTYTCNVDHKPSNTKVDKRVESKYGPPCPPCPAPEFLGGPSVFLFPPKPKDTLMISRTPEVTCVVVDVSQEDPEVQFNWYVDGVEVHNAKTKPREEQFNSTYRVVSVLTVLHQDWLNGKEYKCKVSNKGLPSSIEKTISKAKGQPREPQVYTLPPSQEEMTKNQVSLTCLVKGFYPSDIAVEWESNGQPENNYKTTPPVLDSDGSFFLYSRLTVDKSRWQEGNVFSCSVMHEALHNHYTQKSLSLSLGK
light: EIVLTQSPGTLSLSPGERATLSCRASQRVSSSYLAWYQQKPGQAPRLLIYDASSRATGIPDRFSGSGSGTDFTLTISRLEPEDFAVYYCQQYGSLPWTFGQGTKVEIKRTVAAPSVFIFPPSDEQLKSGTASVVCLLNNFYPREAKVQWKVDNALQSGNSQESVTEQDSKDSTYSLSSTLTLSKADYEKHKVYACEVTHQGLSSPVTKSFNRGEC
Turning to B2, the binding result in experiment [2] is given as “binds”.

B3: Bis3 PD-L1/CTLA-4 (bispecific antibody, human IgG4 S228P, kappa)
heavy: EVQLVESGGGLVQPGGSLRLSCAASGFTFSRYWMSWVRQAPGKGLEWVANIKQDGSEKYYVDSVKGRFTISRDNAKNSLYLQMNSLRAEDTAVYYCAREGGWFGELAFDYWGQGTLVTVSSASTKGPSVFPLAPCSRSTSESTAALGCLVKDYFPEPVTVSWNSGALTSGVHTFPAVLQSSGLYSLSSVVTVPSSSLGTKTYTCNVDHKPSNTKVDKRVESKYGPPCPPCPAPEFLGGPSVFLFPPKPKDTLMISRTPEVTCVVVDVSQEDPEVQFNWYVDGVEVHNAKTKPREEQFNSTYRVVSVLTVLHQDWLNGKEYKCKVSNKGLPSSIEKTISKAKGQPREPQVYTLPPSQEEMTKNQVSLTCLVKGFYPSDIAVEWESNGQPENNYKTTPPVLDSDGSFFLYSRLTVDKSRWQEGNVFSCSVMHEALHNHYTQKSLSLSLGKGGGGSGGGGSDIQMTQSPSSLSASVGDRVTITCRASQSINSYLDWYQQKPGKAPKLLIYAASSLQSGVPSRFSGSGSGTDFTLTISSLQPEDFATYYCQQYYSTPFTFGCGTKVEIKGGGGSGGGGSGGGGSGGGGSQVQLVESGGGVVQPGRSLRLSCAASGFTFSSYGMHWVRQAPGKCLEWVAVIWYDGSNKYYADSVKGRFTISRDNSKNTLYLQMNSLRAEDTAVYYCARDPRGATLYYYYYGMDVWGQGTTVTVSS
light: B2 light
Consider B3, for which the binding result in experiment [2] is given as “binds”.

B4: PD-1(LO115)/TIM3(O13-1) DuetMab (bispecific antibody, human IgG1, kappa, lambda)
heavy 1: EVQLVESGGGLVQPGGSLRLSCAASGFTFSDYGMHWVRQAPGKGLEWVAYISSGSYTIYSADSVKGRFTISRDNAKNSLYLQMNSLRAEDTAVYYCARRAPNSFYEYYFDYWGQGTTVTVSSASTKGPSVFPLAPSSKSTSGGTAALGCLVKDYFPEPVTVSWNSGALTSGVHTFPAVLQSSGLYSLSSVVTVPSSSLGTQTYICNVNHKPSNTKVDKRVEPKSCDKTHTCPPCPAPEFEGGPSVFLFPPKPKDTLMISRTPEVTCVVVDVSHEDPEVKFNWYVDGVEVHNAKTKPREEQYNSTYRVVSVLTVLHQDWLNGKEYKCKVSNKALPASIEKTISKAKGQPREPQVCTLPPSREEMTKNQVSLSCAVKGFYPSDIAVEWESNGQPENNYKTTPPVLDSDGSFFLVSKLTVDKSRWQQGNVFSCSVMHEALHNHYTQKSLSLSPGK
light 1: QIVLTQSPATLSLSPGERATLSCSASSKHTNLYWSRHMYWYQQKPGQAPRLLIYLTSNRATGIPARFSGSGSGTDFTLTISSLEPEDFAVYYCQQWSSNPFTFGQGTKLEIKRTVAAPSVFIFPPSDEQLKSGTASVVCLLNNFYPREAKVQWKVDNALQSGNSQESVTEQDSKDSTYSLSSTLTLSKADYEKHKVYACEVTHQGLSSPVTKSFNRGEC
heavy 2: not shown
light 2: SYVLTQPPSVSVAPGKTARITCGGDNIGGKSVHWYQQKPGQAPVLVIYYDSDRPSGIPERFSGSNSGNTATLTISRVEAGDEADYYCQVLDRRSDHFLFGGGTKLTVLGQPKAAPSVTLFPPCSEELQANKATLVCLISDFYPGAVTVAWKADSSPVKAGVETTTPSKQSNNKYAASSYLSLTPEQWKSHRSYSCQVTHEGSTVEKTVAPTEVS
notes: also called PD-1/TIM3 DuetMab
With B4, the Kd in the experiment with cynomolgus TIM3 turned out to be 25600 pM; with cynomolgus PD-1, 440 pM; in the experiment with human TIM3 (soluble) it was 4150 pM; in experiment [1], 810 pM. For the same molecule, the off-rate constant (koff) is 0.0761 s⁻¹ with cynomolgus TIM3, 0.000215 s⁻¹ in the experiment with cynomolgus PD-1, 0.00813 s⁻¹ with human TIM3 (soluble) and 0.000236 s⁻¹ in experiment [1]. The association rate constant (kon) with cynomolgus TIM3 was 2.98e+06 M⁻¹ s⁻¹; in the experiment with cynomolgus PD-1, 490000 M⁻¹ s⁻¹; with human TIM3 (soluble) it was 1.96e+06 M⁻¹ s⁻¹; in experiment [1] it was 295000 M⁻¹ s⁻¹.
